Data: US20210324359A1, “USE OF GRAM-NEGATIVE LYSIN-ANTIMICROBIAL PEPTIDE (AMP) POLYPEPTIDE CONSTRUCTS IN TREATING ENDOCARDITIS” (priority 2020, published 2021)
Where “and” joins values, the source holds several entries; their conditions need not be identical. Equal entries are not always repeated.

Tests used:
P. aeruginosa isolates = test: MIC against a range of isolates in CAA + […] human serum (Table 11); format: cell-based, Pseudomonas aeruginosa
[1] = system: Pseudomonas aeruginosa biofilm; test: MBEC in CAA supplemented with […] human serum (Table 14); format: cell-based
Description: Biofilms are then washed and treated with e.g., a 2-fold dilution series of the lysin in TSBg at e.g., 37° C. for 24 hours. After treatment, wells are washed, air-dried at e.g., 37° C. and stained with e.g., 0.05% crystal violet for 10 minutes.
Materials and methods: MICs were determined by broth microdilution in media supplemented with human serum and pulmonary surfactant ([…]®; Myoderm Clinical Supplies). Minimal biofilm eradicating concentrations (MBECs) were determined using standard methods. […] Fluorescence microscopy was performed after LIVE/DEAD staining (ThermoFisher) and TEM was performed.

P. aeruginosa strains = test: Checkerboard synergy with meropenem in 25% CAA and […] human serum (Table 16); format: cell-based, Pseudomonas aeruginosa; conditions: for FICI value (Run #1), with meropenem / FICI value (Run #2), with meropenem: 25% CAA and […] human serum
[2] = system: carbapenem-resistant P. aeruginosa strains; test: Resensitization of carbapenem-resistant strains, combinations with imipenem or meropenem (Tables 18-22); format: cell-based, Pseudomonas aeruginosa

B1: GN121: variant lysin (SEQ ID NO: 175), also disclosed in WO 2019/118632 (protein)
chain: MTYTLSKRSLDNLKGVHPDLVAVVHRAIQLTPVDFAVIEGLRSVSRQKELVAAGASKTMNSRHLTGHAVDLAAYVNGIRWDWPLYDAIAVAVKAAAKELGVAIVWGGDWTTFKDGPHFELDRSKYRRKKTRKRLKKIGKVLKWI
activity against P. aeruginosa isolates in human serum or SURVANTA (P. aeruginosa isolates; Tables 11 and 12): active against a variety of P. aeruginosa isolates
MIC, CAA + […] Human Serum (P. aeruginosa isolates; strain CFS 1109 (ATCC 17646)): 0.5 µg/mL
MIC, CAA + […] Human Serum (P. aeruginosa isolates; strain CFS 1292): 1 µg/mL
MIC, CAA + […] Human Serum (P. aeruginosa isolates; strain CFS1539 (PA1)): 0.5 µg/mL
MIC, CAA + […] Human Serum (P. aeruginosa isolates; strain CFS 1540 (PA2)): 0.5 µg/mL
MIC, CAA + […] Human Serum (P. aeruginosa isolates; strain CFS 1541 (PA3)): 0.5 µg/mL
MIC, CAA + […] Human Serum (P. aeruginosa isolates; strain CFS 1557 (PA19)): 2 µg/mL
MIC, CAA + […] Human Serum (P. aeruginosa isolates; strain CFS 1558 (PA20)): 0.5 µg/mL
MIC, CAA + […] Human Serum (P. aeruginosa isolates; strain CFS 1559 (PA21)): 1 µg/mL
MIC, CAA + […] Human Serum (P. aeruginosa isolates; strain CFS 1560 (PA22)): 1 µg/mL
MIC, CAA + […] Human Serum (P. aeruginosa isolates; strain CFS 1561 (PA23)): 1 µg/mL
MIC, CAA + […] Human Serum (P. aeruginosa isolates; strain CFS 1562 (PA24)): 1 µg/mL
MIC, CAA + […] Human Serum (P. aeruginosa isolates; strain CFS 1596 (PA26)): 0.5 µg/mL
MIC, CAA + […] Human Serum (P. aeruginosa isolates; strain CFS 1597 (PA27)): 0.5 µg/mL
MIC, CAA + […] Human Serum (P. aeruginosa isolates; strain CFS 1669 (PA41)): 1 µg/mL
MIC, CAA + […] Human Serum (P. aeruginosa isolates; strain CFS 1674 (PA46)): 0.5 µg/mL
MIC, CAA + […] Human Serum (P. aeruginosa isolates; strain CFS 1675 (PA47)): 0.5 µg/mL
MIC, CAA + […] Human Serum (P. aeruginosa isolates; strain CFS 1766 (ATCC 27853)): 2 µg/mL
MBEC in CAA supplemented with […] human serum [1]: 0.25 µg/mL
synergy with meropenem (P. aeruginosa strains; FICI less than or equal to 0.5 = potent synergy): exhibited synergy with meropenem
FICI value (Run #1), with meropenem (P. aeruginosa strains; strain CFS 1292): 0.25
FICI value (Run #2), with meropenem (P. aeruginosa strains; strain CFS 1292): 0.292
FICI value (Run #1), with meropenem (P. aeruginosa strains; strain CFS 1557 (PA19)): 0.375
FICI value (Run #2), with meropenem (P. aeruginosa strains; strain CFS 1557 (PA19)): 0.427
FICI value (Run #1), with meropenem (P. aeruginosa strains; strain CFS 1558 (PA20)): 0.125
FICI value (Run #2), with meropenem (P. aeruginosa strains; strain CFS 1558 (PA20)): 0.156
FICI value (Run #2), with meropenem (P. aeruginosa strains; strain CFS 1559 (PA21)): 0.229
FICI value (Run #2), with meropenem (P. aeruginosa strains; strain CFS 1560 (PA22)): 0.313
FICI value (Run #2), with meropenem (P. aeruginosa strains; strain CFS 1561 (PA23)): 0.198
FICI value (Run #2), with meropenem (P. aeruginosa strains; strain CFS 1562 (PA24)): 0.214
FICI value (Run #2), with meropenem (P. aeruginosa strains; strain CFS 1766 (ATCC 27853)): 0.229
resensitization to carbapenems in synergistic combinations ([2]; imipenem (IPM) and meropenem (MEM), carbapenem-resistant isolates): reductions of IPM and MEM MICS to below breakpoint values
lysin MIC, Combination ([2]; in combination with imipenem, isolate PA19): 0.125 µg/mL
lysin MIC, Combination ([2]; in combination with imipenem, isolate PA20): 0.25 µg/mL
lysin MIC, Combination ([2]; in combination with imipenem, isolate PA21): 0.125 µg/mL
lysin MIC, Combination ([2]; in combination with imipenem, isolate PA22): 0.25 µg/mL
lysin MIC, Combination ([2]; in combination with imipenem, isolate PA23): 0.25 µg/mL
lysin MIC, Combination ([2]; in combination with imipenem, isolate PA24): 0.125 µg/mL
lysin MIC, Combination ([2]; in combination with meropenem, isolate PA19): 0.5 µg/mL
lysin MIC, Combination ([2]; in combination with meropenem, isolate PA20): 0.5 µg/mL
lysin MIC, Combination ([2]; in combination with meropenem, isolate PA22): 0.25 µg/mL
lysin MIC, Combination ([2]; in combination with meropenem, isolate PA23): 0.5 µg/mL
lysin MIC, Combination ([2]; in combination with meropenem, isolate WC-452): 0.06 µg/mL
MIC, Alone ([2]; isolate PA19): 1 µg/mL and 2 µg/mL
MIC, Alone ([2]; isolate PA20): 1 µg/mL and 2 µg/mL
MIC, Alone ([2]; isolate PA21): 1 µg/mL
MIC, Alone ([2]; isolate PA22): 2 µg/mL and 1 µg/mL
MIC, Alone ([2]; isolate PA23): 1 µg/mL and 2 µg/mL
MIC, Alone ([2]; isolate PA24): 1 µg/mL
MIC, Alone ([2]; isolate WC-452): 1 µg/mL
FICI ([2]; lysin + imipenem, isolate PA19): 0.155
FICI ([2]; lysin + imipenem, isolate PA20): 0.265
FICI ([2]; lysin + imipenem, isolate PA21): 0.155
FICI ([2]; lysin + imipenem, isolate PA22): 0.188
FICI ([2]; lysin + imipenem, isolate PA23): 0.257
FICI ([2]; lysin + imipenem, isolate PA24): 0.155
FICI ([2]; lysin + meropenem, isolate PA19): 0.281
FICI ([2]; lysin + meropenem, isolate PA20): 0.313
FICI ([2]; lysin + meropenem, isolate PA21): 0.188
FICI ([2]; lysin + meropenem, isolate PA22): 0.313
FICI ([2]; lysin + meropenem, isolate PA23): 0.375
FICI ([2]; lysin + meropenem, isolate PA24): 0.156
FICI ([2]; lysin + meropenem, isolate WC-452): 0.123
